Data reported in paper PMC9482650, “Quantitative fragmentomics allow affinity mapping of interactomes” (Nature Communications, 2022).

T1: SHANK1, Q9Y566
T1 sequence (Q9Y566 658-767, limits assumed, looked up): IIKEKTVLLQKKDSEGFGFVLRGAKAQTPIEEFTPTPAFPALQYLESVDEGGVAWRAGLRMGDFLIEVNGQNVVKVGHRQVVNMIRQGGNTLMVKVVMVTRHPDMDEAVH

T2: CARD11, Q9BXL7
T2 sequence (Q9BXL7 662-765, limits assumed, looked up): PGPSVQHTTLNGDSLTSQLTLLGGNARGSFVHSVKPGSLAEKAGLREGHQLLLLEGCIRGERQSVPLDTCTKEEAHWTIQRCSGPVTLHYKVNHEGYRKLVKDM

T3: MPDZ_12, O75970
T3 sequence (O75970 1857-1958, limits assumed, looked up): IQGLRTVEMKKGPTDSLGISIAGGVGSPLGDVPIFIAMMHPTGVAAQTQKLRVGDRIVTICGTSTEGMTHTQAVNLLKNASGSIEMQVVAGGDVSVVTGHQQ

T4: PARD3B_1, Q8TEW8
T4 sequence (Q8TEW8 196-299, limits assumed, looked up): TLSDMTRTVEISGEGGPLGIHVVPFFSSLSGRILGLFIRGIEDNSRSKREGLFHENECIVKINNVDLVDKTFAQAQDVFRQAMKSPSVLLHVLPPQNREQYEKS

T5: SIPA1L2, Q9P2F8
T5 sequence (Q9P2F8 945-1036, limits assumed, looked up): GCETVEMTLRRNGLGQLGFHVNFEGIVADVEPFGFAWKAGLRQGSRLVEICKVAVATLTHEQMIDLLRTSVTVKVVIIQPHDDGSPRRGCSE

T6: GRIP1_4, Q9Y3R0
T6 sequence (Q9Y3R0 467-571, limits assumed, looked up): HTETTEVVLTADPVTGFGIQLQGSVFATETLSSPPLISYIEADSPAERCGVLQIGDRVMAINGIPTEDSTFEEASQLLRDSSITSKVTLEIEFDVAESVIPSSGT

T7: RHPN1, Q8TCX5
T7 sequence (Q8TCX5 508-602, limits assumed, looked up): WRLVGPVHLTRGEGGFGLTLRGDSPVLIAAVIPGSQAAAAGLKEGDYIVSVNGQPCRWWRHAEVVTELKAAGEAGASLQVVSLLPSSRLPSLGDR

T8: LIN7C, Q9NUP9
T8 sequence (Q9NUP9 88-185, limits assumed, looked up): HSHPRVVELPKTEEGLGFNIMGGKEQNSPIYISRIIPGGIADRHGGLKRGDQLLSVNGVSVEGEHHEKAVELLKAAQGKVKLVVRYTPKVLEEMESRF

B1: CACNA1D, Q01668 (peptide)
chain: ADEMICITTL
B2: DUSP5, Q16690 (peptide)
chain: RSPVATATSC
B3: GAS2L2, Q8NHY3 (peptide)
chain: PLPPEEESWV

What follows are binders tested against HTRA2, O43464 (assay: holdup assay). Details: plain residues with an end cap or a label only (N-terminal biotin on a linker: ado-ado).
Design: key: below the threshold = too weak to quantify, mostly under pKd 3.1 to 4

Chain of HTRA2, O43464 (O43464 355-458): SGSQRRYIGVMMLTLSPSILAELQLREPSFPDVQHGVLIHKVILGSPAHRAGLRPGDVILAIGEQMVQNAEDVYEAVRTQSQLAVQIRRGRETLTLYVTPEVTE

pKd | Binder
3.83 | B1
below the threshold | B2
3.96 | B3

These binders were tested against LNX1_3, Q8TBB1 (assay: holdup assay). Details: plain residues with an end cap or a label only (N-terminal biotin on a linker: ado-ado).
Design: key: below the threshold = too weak to quantify, mostly under pKd 3.1 to 4

Chain of LNX1_3, Q8TBB1 (Q8TBB1 500-596): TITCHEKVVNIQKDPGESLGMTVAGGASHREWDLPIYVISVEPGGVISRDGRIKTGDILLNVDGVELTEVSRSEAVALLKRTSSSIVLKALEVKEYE

pKd | Binder
below the threshold | B1
below the threshold | B2
below the threshold | B3

Each binder was assayed against GRID2IP_2, A4D2P6 (assay: holdup assay). Details: plain residues with an end cap or a label only (N-terminal biotin on a linker: ado-ado).
Design: key: below the threshold = too weak to quantify, mostly under pKd 3.1 to 4

Chain of GRID2IP_2, A4D2P6 (A4D2P6 272-370): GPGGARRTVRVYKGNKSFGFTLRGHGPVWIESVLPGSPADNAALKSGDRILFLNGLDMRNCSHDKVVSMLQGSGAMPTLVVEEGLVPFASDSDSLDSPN

pKd | Binder
4.94 | B1
3.79 | B2
4.06 | B3

Each binder was assayed against T1, SHANK1, Q9Y566 (assay: holdup assay). Details: plain residues with an end cap or a label only (N-terminal biotin on a linker: ado-ado).
Design: key: below the threshold = too weak to quantify, mostly under pKd 3.1 to 4

pKd | Binder
5.28 | B1
3.55 | B2
4.62 | B3

What follows are binders tested against T2, CARD11, Q9BXL7 (assay: holdup assay). Details: plain residues with an end cap or a label only (N-terminal biotin on a linker: ado-ado).
Design: key: below the threshold = too weak to quantify, mostly under pKd 3.1 to 4

pKd | Binder
below the threshold | B1
below the threshold | B2
below the threshold | B3

These binders were tested against FRMPD4, Q14CM0 (assay: holdup assay). Details: plain residues with an end cap or a label only (N-terminal biotin on a linker: ado-ado).
Design: key: below the threshold = too weak to quantify, mostly under pKd 3.1 to 4

Chain of FRMPD4, Q14CM0 (Q14CM0 67-160): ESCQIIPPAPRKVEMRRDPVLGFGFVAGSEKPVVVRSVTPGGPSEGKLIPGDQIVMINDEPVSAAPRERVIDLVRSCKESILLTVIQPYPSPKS

pKd | Binder
3.97 | B1
below the threshold | B2
3.55 | B3

These binders were tested against SNX27, Q96L92 (assay: holdup assay). Details: plain residues with an end cap or a label only (N-terminal biotin on a linker: ado-ado).
Design: key: below the threshold = too weak to quantify, mostly under pKd 3.1 to 4

pKd | Binder
5.51 | B1
below the threshold | B2
5.58 | B3

These binders were tested against MAGI2_2, Q86UL8 (assay: holdup assay). Details: plain residues with an end cap or a label only (N-terminal biotin on a linker: ado-ado).
Design: key: below the threshold = too weak to quantify, mostly under pKd 3.1 to 4

Chain of MAGI2_2, Q86UL8 (Q86UL8 410-522): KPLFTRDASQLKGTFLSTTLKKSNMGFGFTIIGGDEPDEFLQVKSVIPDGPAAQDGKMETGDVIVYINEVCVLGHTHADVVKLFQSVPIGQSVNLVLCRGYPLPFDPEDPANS

pKd | Binder
below the threshold | B1
below the threshold | B2
below the threshold | B3

These binders were tested against Inadl_1, Q8NI35 (assay: holdup assay). Details: plain residues with an end cap or a label only (N-terminal biotin on a linker: ado-ado).
Design: key: below the threshold = too weak to quantify, mostly under pKd 3.1 to 4

Chain of Inadl_1, Q8NI35 (Q8NI35 113-229): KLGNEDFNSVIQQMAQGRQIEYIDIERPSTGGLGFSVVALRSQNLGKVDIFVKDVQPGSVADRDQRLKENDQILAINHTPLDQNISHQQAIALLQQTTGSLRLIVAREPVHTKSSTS

pKd | Binder
4.33 | B1
below the threshold | B2
3.55 | B3

What follows are binders tested against PTPN3, P26045 (assay: holdup assay). Details: plain residues with an end cap or a label only (N-terminal biotin on a linker: ado-ado).
Design: key: below the threshold = too weak to quantify, mostly under pKd 3.1 to 4

Chain of PTPN3, P26045 (P26045 505-587): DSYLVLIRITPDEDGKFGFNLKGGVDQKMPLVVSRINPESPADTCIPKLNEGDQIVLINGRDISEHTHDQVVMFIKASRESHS

pKd | Binder
4.62 | B1
4.05 | B2
4.75 | B3

These binders were tested against T3, MPDZ_12, O75970 (assay: holdup assay). Details: plain residues with an end cap or a label only (N-terminal biotin on a linker: ado-ado).
Design: key: below the threshold = too weak to quantify, mostly under pKd 3.1 to 4

pKd | Binder
4.02 | B1
below the threshold | B2
4.36 | B3

These binders were tested against Inadl_6, Q8NI35 (assay: holdup assay). Details: plain residues with an end cap or a label only (N-terminal biotin on a linker: ado-ado).
Design: key: below the threshold = too weak to quantify, mostly under pKd 3.1 to 4

Chain of Inadl_6, Q8NI35 (Q8NI35 1058-1167): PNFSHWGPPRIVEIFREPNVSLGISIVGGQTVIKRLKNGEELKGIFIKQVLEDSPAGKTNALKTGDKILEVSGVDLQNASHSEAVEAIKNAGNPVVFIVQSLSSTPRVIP

pKd | Binder
4.62 | B1
below the threshold | B2
5.43 | B3

These binders were tested against T4, PARD3B_1, Q8TEW8 (assay: holdup assay). Details: plain residues with an end cap or a label only (N-terminal biotin on a linker: ado-ado).
Design: key: below the threshold = too weak to quantify, mostly under pKd 3.1 to 4

pKd | Binder
4.84 | B1
below the threshold | B2
3.95 | B3

The binders below were run against T5, SIPA1L2, Q9P2F8 (assay: holdup assay). Details: plain residues with an end cap or a label only (N-terminal biotin on a linker: ado-ado).
Design: key: below the threshold = too weak to quantify, mostly under pKd 3.1 to 4

pKd | Binder
below the threshold | B1
below the threshold | B2
below the threshold | B3

The binders below were run against GORASP1, Q9BQQ3 (assay: holdup assay). Details: plain residues with an end cap or a label only (N-terminal biotin on a linker: ado-ado).
Design: key: below the threshold = too weak to quantify, mostly under pKd 3.1 to 4

Chain of GORASP1, Q9BQQ3 (Q9BQQ3 1-208): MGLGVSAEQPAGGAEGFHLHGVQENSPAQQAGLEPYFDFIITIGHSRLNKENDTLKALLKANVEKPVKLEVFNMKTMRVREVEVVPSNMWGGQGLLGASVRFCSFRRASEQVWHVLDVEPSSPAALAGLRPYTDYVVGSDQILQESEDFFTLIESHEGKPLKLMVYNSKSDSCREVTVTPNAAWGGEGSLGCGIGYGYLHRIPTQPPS

pKd | Binder
4 | B1
below the threshold | B2
4.22 | B3

These binders were tested against Inadl_2, Q8NI35 (assay: holdup assay). Details: plain residues with an end cap or a label only (N-terminal biotin on a linker: ado-ado).
Design: key: below the threshold = too weak to quantify, mostly under pKd 3.1 to 4

Chain of Inadl_2, Q8NI35 (Q8NI35 238-335): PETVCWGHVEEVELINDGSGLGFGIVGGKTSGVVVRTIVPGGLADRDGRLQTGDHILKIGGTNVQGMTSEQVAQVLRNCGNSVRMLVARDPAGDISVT

pKd | Binder
below the threshold | B1
below the threshold | B2
4.17 | B3

Each binder was assayed against DLG1_3, Q12959 (assay: holdup assay). Details: plain residues with an end cap or a label only (N-terminal biotin on a linker: ado-ado).
Design: key: below the threshold = too weak to quantify, mostly under pKd 3.1 to 4

Chain of DLG1_3, Q12959 (Q12959 457-571): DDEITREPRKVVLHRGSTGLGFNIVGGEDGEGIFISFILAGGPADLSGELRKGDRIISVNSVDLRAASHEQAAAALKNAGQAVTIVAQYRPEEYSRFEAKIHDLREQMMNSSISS

pKd | Binder
3.78 | B1
below the threshold | B2
below the threshold | B3

The binders below were run against T6, GRIP1_4, Q9Y3R0 (assay: holdup assay). Details: plain residues with an end cap or a label only (N-terminal biotin on a linker: ado-ado).
Design: key: below the threshold = too weak to quantify, mostly under pKd 3.1 to 4

pKd | Binder
below the threshold | B1
below the threshold | B2
below the threshold | B3

These binders were tested against DLG4_1, P78352 (assay: holdup assay). Details: plain residues with an end cap or a label only (N-terminal biotin on a linker: ado-ado).
Design: key: below the threshold = too weak to quantify, mostly under pKd 3.1 to 4

Chain of DLG4_1, P78352 (P78352 62-152): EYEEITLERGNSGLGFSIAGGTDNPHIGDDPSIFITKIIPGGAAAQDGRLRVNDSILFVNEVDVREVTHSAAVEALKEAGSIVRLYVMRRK

pKd | Binder
below the threshold | B1
below the threshold | B2
4.03 | B3

These binders were tested against FRMPD2_2, Q68DX3 (assay: holdup assay). Details: plain residues with an end cap or a label only (N-terminal biotin on a linker: ado-ado).
Design: key: below the threshold = too weak to quantify, mostly under pKd 3.1 to 4

Chain of FRMPD2_2, Q68DX3 (Q68DX3 944-1038): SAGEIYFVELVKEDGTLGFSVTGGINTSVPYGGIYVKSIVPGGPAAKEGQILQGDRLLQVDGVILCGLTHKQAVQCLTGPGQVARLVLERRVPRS

pKd | Binder
3.86 | B1
below the threshold | B2
6.16 | B3

What follows are binders tested against NHERF2_2, Q15599 (assay: holdup assay). Details: plain residues with an end cap or a label only (N-terminal biotin on a linker: ado-ado).
Design: key: below the threshold = too weak to quantify, mostly under pKd 3.1 to 4

Chain of NHERF2_2, Q15599 (Q15599 142-238): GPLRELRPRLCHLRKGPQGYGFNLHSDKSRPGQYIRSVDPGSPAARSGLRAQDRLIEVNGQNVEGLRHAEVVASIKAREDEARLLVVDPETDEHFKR

pKd | Binder
4.63 | B1
below the threshold | B2
4.62 | B3

These binders were tested against T7, RHPN1, Q8TCX5 (assay: holdup assay). Details: plain residues with an end cap or a label only (N-terminal biotin on a linker: ado-ado).
Design: key: below the threshold = too weak to quantify, mostly under pKd 3.1 to 4

pKd | Binder
5.05 | B1
below the threshold | B2
4.43 | B3

These binders were tested against NHERF4_4, Q86UT5 (assay: holdup assay). Details: plain residues with an end cap or a label only (N-terminal biotin on a linker: ado-ado).
Design: key: below the threshold = too weak to quantify, mostly under pKd 3.1 to 4

Chain of NHERF4_4, Q86UT5 (Q86UT5 464-550): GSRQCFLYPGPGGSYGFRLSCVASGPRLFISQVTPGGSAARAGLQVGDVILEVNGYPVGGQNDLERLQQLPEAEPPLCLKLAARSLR

pKd | Binder
3.73 | B1
below the threshold | B2
below the threshold | B3

The binders below were run against GRIP2_4, Q9C0E4 (assay: holdup assay). Details: plain residues with an end cap or a label only (N-terminal biotin on a linker: ado-ado).
Design: key: below the threshold = too weak to quantify, mostly under pKd 3.1 to 4

Chain of GRIP2_4, Q9C0E4 (Q9C0E4 446-548): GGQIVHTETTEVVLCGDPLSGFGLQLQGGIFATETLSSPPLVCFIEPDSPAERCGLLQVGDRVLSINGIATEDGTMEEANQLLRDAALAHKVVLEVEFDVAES

pKd | Binder
below the threshold | B1
below the threshold | B2
below the threshold | B3

What follows are binders tested against T8, LIN7C, Q9NUP9 (assay: holdup assay). Details: plain residues with an end cap or a label only (N-terminal biotin on a linker: ado-ado).
Design: key: below the threshold = too weak to quantify, mostly under pKd 3.1 to 4

pKd | Binder
below the threshold | B1
below the threshold | B2
3.77 | B3

The binders below were run against LDB3, O75112 (assay: holdup assay). Details: plain residues with an end cap or a label only (N-terminal biotin on a linker: ado-ado).
Design: key: below the threshold = too weak to quantify, mostly under pKd 3.1 to 4

Chain of LDB3, O75112 (O75112 1-94): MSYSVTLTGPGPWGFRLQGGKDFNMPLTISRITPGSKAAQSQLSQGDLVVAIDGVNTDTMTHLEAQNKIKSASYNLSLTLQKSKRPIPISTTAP

pKd | Binder
below the threshold | B1
below the threshold | B2
below the threshold | B3

What follows are binders tested against MAGI2_6, Q86UL8 (assay: holdup assay). Details: plain residues with an end cap or a label only (N-terminal biotin on a linker: ado-ado).
Design: key: below the threshold = too weak to quantify, mostly under pKd 3.1 to 4

Chain of MAGI2_6, Q86UL8 (Q86UL8 1141-1229): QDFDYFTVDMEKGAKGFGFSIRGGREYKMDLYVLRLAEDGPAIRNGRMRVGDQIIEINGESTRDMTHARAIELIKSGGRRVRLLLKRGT

pKd | Binder
4.85 | B1
below the threshold | B2
5.88 | B3

These binders were tested against SCRIB_3, Q14160 (assay: holdup assay). Details: plain residues with an end cap or a label only (N-terminal biotin on a linker: ado-ado).
Design: key: below the threshold = too weak to quantify, mostly under pKd 3.1 to 4

Chain of SCRIB_3, Q14160 (Q14160 999-1103): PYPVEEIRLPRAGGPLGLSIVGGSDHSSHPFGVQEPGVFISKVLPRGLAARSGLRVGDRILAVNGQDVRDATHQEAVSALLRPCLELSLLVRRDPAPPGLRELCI

pKd | Binder
4.88 | B1
3.56 | B2
4.99 | B3

These binders were tested against NHERF4_1, Q86UT5-2 (assay: holdup assay). Details: plain residues with an end cap or a label only (N-terminal biotin on a linker: ado-ado).
Design: key: below the threshold = too weak to quantify, mostly under pKd 3.1 to 4

Chain of NHERF4_1, Q86UT5-2 (Q86UT5 other isoform, or with tags, fused parts or gaps): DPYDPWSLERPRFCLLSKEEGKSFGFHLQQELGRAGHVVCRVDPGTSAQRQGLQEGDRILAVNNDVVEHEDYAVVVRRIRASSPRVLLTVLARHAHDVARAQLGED

pKd | Binder
4.52 | B1
3.59 | B2
below the threshold | B3
